Reference: patent US7052705 (dated 2006)
Bridge positions count the residues as written; N and C are the ends. Ends that are not written are not given here.

B1: VEGF121 (protein)
chain: APMAEGGGQNHHEVVKFMDVYQRSYCHPIETLVDIFQEYPDEIEYIFKPSCVPLMRCGGCCNDEGLECVPTEESNITMQIMRIKPHQGQHIGEMSFLQHNKCECRPKKDRARQEKCDKPRR
B2: VEGF165 (protein)
chain: APMAEGGGQNHHEVVKFMDVYQRSYCHPIETLVDIFQEYPDEIEYIFKPSCVPLMRCGGCCNDEGLECVPTEESNITMQIMRIKPHQGQHIGEMSFLQHNKCECRPKKDRARQENPCGPCSERRKHLFVQDPQTCKCSCKNTDSRCKARQLELNERTCRCDKPRR
B3: (cap)P6V8-3NCS1-7CC (peptide)
chain: CKGRGKRCREKQRPSDKPRR
modifications: disulfide 1-8; also: capped amino and carboxyl termini, chemistry of caps not given here

Biological target: T1, VEGFR-2 (human, UniProt P35968)
T1 chain: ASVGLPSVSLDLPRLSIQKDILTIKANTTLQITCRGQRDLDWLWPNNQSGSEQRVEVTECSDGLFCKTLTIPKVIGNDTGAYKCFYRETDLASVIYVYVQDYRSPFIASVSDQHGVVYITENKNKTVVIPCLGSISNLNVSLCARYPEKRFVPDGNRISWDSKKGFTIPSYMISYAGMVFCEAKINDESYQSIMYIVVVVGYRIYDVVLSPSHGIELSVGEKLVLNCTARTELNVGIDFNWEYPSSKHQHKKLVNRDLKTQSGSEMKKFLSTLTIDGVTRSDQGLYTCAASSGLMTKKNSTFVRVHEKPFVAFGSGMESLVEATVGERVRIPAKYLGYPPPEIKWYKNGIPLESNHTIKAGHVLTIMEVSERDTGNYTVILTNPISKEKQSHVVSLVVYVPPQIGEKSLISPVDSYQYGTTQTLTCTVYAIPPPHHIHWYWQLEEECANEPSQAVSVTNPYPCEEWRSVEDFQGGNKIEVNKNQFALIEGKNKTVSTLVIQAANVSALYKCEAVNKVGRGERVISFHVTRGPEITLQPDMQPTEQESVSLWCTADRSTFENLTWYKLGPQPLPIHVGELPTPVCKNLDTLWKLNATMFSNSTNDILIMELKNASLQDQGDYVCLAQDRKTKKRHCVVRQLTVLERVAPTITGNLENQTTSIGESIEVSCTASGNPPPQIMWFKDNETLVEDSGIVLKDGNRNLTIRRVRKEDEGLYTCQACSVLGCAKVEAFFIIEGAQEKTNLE
Test: competition, COS-1 cells, 4C

Binder	IC50 [nM]
B1	0.312

These binders were tested against T2, VEGFR-2/NP-1 co-expressed (human, UniProt P35968) (assay: competition, 125I-VEGF165).

Binder	IC50 [nM]
RRPKGRGKRRREKQRP [P6]	12200
RRPKGRGKRRREKQRPDAVPRR [P6P7]	1170

What follows are binders tested against T3, Neuropilin-1 (NP-1) (human, UniProt O14786) (assay: competition, Balb/c).
T3 sequence (O14786 22-923): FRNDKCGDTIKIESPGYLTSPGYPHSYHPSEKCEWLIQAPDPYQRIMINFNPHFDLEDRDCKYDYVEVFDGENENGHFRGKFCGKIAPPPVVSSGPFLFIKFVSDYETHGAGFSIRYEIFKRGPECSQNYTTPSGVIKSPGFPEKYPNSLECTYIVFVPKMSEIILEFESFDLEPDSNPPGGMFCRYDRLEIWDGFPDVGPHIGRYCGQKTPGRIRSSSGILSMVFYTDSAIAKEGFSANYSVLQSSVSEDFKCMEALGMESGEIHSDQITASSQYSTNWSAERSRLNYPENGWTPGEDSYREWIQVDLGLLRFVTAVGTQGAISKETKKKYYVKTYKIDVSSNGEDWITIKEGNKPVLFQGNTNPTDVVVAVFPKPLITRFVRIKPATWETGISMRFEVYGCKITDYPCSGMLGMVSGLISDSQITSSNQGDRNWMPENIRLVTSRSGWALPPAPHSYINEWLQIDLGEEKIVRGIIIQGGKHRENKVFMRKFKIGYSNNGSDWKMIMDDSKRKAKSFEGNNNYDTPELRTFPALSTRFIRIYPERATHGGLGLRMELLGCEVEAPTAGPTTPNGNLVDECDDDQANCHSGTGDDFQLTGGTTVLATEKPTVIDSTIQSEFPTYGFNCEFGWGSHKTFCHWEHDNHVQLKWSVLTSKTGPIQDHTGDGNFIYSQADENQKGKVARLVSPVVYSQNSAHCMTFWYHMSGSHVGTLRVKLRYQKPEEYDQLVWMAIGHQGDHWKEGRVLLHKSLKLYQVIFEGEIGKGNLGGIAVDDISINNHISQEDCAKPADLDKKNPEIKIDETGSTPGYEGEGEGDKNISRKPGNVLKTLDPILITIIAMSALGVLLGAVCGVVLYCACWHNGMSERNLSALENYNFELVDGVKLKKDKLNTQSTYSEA

Binder	IC50 [nM]
KGRGKRRREKQRPCDKPRR [P6V8-3N]	254
B2	0.158
RRPKGRGKRRREAAAPSDKPRR [AS-4]	17.8

The binders below were run against T3, Neuropilin-1 (NP-1) (assay: other, radioligand saturation COS-1).

Binder	Kd [nM]
B2	2.09

These binders were tested against T3, Neuropilin-1 (NP-1) (assay: competition, COS-1).

Binder	IC50 [nM]
B2	0.582

What follows are binders tested against T2, VEGFR-2/NP-1 co-expressed (assay: competition, Balb/c).
Target sequence in this assay (chain, as listed by the source, chain 2 of 2, one chain of several): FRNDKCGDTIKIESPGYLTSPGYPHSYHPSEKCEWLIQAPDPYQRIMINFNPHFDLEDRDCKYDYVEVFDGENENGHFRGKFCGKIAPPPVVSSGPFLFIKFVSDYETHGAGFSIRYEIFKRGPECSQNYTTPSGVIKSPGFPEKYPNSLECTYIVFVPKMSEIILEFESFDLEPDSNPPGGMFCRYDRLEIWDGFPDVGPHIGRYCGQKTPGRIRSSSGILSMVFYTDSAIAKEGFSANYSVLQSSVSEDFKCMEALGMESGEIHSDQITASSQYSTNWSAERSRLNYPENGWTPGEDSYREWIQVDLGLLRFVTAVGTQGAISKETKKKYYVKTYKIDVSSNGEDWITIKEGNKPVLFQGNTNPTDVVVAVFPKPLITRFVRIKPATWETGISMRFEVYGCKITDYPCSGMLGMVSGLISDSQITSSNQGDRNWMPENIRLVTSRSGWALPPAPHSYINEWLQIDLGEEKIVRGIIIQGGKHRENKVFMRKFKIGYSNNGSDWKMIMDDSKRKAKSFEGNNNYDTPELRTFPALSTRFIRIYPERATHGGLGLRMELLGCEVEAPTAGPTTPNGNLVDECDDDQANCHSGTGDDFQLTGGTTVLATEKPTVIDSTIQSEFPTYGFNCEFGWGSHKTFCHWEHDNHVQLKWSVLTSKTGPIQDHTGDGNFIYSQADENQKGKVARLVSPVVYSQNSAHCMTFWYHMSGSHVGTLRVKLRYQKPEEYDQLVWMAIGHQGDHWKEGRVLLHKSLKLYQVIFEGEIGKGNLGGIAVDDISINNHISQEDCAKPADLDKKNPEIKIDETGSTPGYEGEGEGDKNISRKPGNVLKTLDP

Binder	IC50 [nM]
RRPKGRGKRRREAAAPSDKPRR [AS-4]	300

What follows are binders tested against T2, VEGFR-2/NP-1 co-expressed (assay: competition, COS-1).

Binder	binding result
RRPKGRGKRAAAKQRPSDKPRR [AS-3]	no binding
B1	no binding

Biological target: T1, VEGFR-2
Test: competition, COS-1

Binder	binding result
CAGRGARCREKQRPSDKPRR (disulfide 1-8) [P6V8-3NCS1-7CCA1A5]	no binding
KGAGARRREKQRPSDKPRR [P6V8-3NCSA3A5]	no binding
AGRGKARREKQRPSDKPRR [P6V8-3NCSA1A6]	no binding
RPCDKPRR [V8]	no binding
RPSDKPRR [V8CS]	no binding
AGRGARAAEKQAPSDKPRR [P6V8-3NCSA1,5,7,8,12]	no binding
PKRSRRKGQPRPRGRREKRDRK [RAND1]	no binding
KGRGKRAAEAQAPSDKPRR [P6V8-3NCSA7,8,10,12]	no binding
RRPAAAGKRRREKQRPSDKPRR [AS-1]	no binding
RRPKGRGKRRREKQRAAAKPRR [AS-4A]	no binding
KGRGKRRRECQRPSCKPRR (disulfide 10-15) [P6V8-3NCSC13C18]	no binding
KGAGKARREKQRPSDKPRR [P6V8-3NCSA3A6]	no binding
AGRGARRREKQRPSDKPRR [P6V8-3NCSA1A5]	no binding
KGRGKRRREKQRPSDKPRR (also: (cap), group not given here) [(cap)P6V8-3NCS]	no binding
RREKQRPCDKPRR [P6V8-9N]	no binding
B3	no binding
CKGRGARCREKQRPSDKPRR (disulfide 1-8) [P6V8-3NCS1-7CCA5]	no binding
RRPKGRGKRRREAAAPSDKPRR [AS-4]	no binding
CAGRGKRCREKQRPSDKPRR (disulfide 1-8) [P6V8-3NCS1-7CCA1]	no binding

Biological target: T3, Neuropilin-1 (NP-1)
Test: competition, COS-1
Remark: another data set of the same source

Binder	binding result
RPCDKPRR [V8]	no binding
B1	no binding
